Assay results published in publication PMC11969024 (2025).

B1: peptide HD2 (from tick evasin EVA4) / CCL17 (biotinylated, synthetic) (parent complex)
chain 1: EEDDYTAYAPLTCYFT
chain 2: ARGTNVGRECCLEYFKGAIPLRKLKTWYQTSEDCSRDAIVFVTVQGRAICSDPNNKRVKNAVKYLQSLERS

Variants of: B1

Compared with chain 1 A7F, chain 1 A7H is higher in enrichment: -3.04 log2 (difference from the parental peptide) for the first, 1.03 log2 (difference from the parental peptide) for the second.

First: chain 1 A7V
Second: chain 1 A7N
The enrichment of the first is lower: -4.48 log2 (difference from the parental peptide) for the first, 2.1 log2 (difference from the parental peptide) for the second.

Compared with chain 1 A7E, chain 1 A7T is lower in enrichment: -0.527 log2 (difference from the parental peptide) for the first, -1.52 log2 (difference from the parental peptide) for the second.

Compared with chain 1 A7D, chain 1 A7Y is lower in enrichment: 0.474 log2 (difference from the parental peptide) for the first, -1.58 log2 (difference from the parental peptide) for the second.

First: chain 1 A7G
Second: chain 1 A7M
The enrichment of the first is higher: 2.15 log2 (difference from the parental peptide) for the first, 1.3 log2 (difference from the parental peptide) for the second.

First: chain 1 A7S
Second: chain 1 Y5S
The enrichment of the first is higher: 0.977 log2 (difference from the parental peptide) for the first, -7.62 log2 (difference from the parental peptide) for the second.

First: chain 1 Y5F
Second: chain 1 Y5W
The enrichment of the first is lower: -2.8 log2 (difference from the parental peptide) for the first, 0.266 log2 (difference from the parental peptide) for the second.

First: chain 1 Y5G
Second: chain 1 Y5A
The enrichment of the first is lower: -7.21 log2 (difference from the parental peptide) for the first, -5.17 log2 (difference from the parental peptide) for the second.

Compared with chain 1 Y5M, chain 1 Y5H is lower in enrichment: -3.16 log2 (difference from the parental peptide) for the first, -5.84 log2 (difference from the parental peptide) for the second.

First: chain 1 Y5I
Second: chain 1 Y5P
The enrichment of the first is lower: -6.15 log2 (difference from the parental peptide) for the first, -4.51 log2 (difference from the parental peptide) for the second.

First: chain 1 E1V
Second: chain 1 E1L
The enrichment of the first is higher: -0.847 log2 (difference from the parental peptide) for the first, -0.975 log2 (difference from the parental peptide) for the second.

Compared with chain 1 E1I, chain 1 E1A is higher in enrichment: -0.523 log2 (difference from the parental peptide) for the first, 0.0959 log2 (difference from the parental peptide) for the second.

Going from chain 1 E1W to chain 1 E1Q, the enrichment rises from -2.36 log2 (difference from the parental peptide) to 0.156 log2 (difference from the parental peptide).

First: chain 1 E1M
Second: chain 1 E1N
The enrichment of the first is lower: 0.0225 log2 (difference from the parental peptide) for the first, 0.681 log2 (difference from the parental peptide) for the second.

Compared with chain 1 E1G, chain 1 E1D is higher in enrichment: 0.607 log2 (difference from the parental peptide) for the first, 2.62 log2 (difference from the parental peptide) for the second.

Compared with chain 1 E1Y, chain 1 T6A is higher in enrichment: -0.248 log2 (difference from the parental peptide) for the first, 1.8 log2 (difference from the parental peptide) for the second.

First: chain 1 T6K
Second: chain 1 T6H
The enrichment of the first is lower: 0.208 log2 (difference from the parental peptide) for the first, 0.317 log2 (difference from the parental peptide) for the second.

Going from chain 1 T6V to chain 1 T6L, the enrichment rises from -4.25 log2 (difference from the parental peptide) to -1.57 log2 (difference from the parental peptide).

Going from chain 1 T6R to chain 1 T6M, the enrichment falls from 0.942 log2 (difference from the parental peptide) to -0.648 log2 (difference from the parental peptide).

Going from chain 1 T6Y to chain 1 E2N, the enrichment falls from 0.0769 log2 (difference from the parental peptide) to -1.61 log2 (difference from the parental peptide).

First: chain 1 E2C
Second: chain 1 E2D
The enrichment of the first is lower: -10.1 log2 (difference from the parental peptide) for the first, 1.45 log2 (difference from the parental peptide) for the second.

Going from chain 1 E2S to chain 1 E2T, the enrichment falls from -1.29 log2 (difference from the parental peptide) to -2.14 log2 (difference from the parental peptide).

Compared with chain 1 E2H, chain 1 E2M is lower in enrichment: -1.27 log2 (difference from the parental peptide) for the first, -1.82 log2 (difference from the parental peptide) for the second.

Going from chain 1 E2W to chain 1 T12I, the enrichment rises from -2.45 log2 (difference from the parental peptide) to 0.0487 log2 (difference from the parental peptide).

First: chain 1 T12Q
Second: chain 1 T12Y
The enrichment of the first is lower: -1.6 log2 (difference from the parental peptide) for the first, -0.855 log2 (difference from the parental peptide) for the second.

First: chain 1 T12D
Second: chain 1 T12V
The enrichment of the first is lower: -7.76 log2 (difference from the parental peptide) for the first, -0.896 log2 (difference from the parental peptide) for the second.

First: chain 1 T12H
Second: chain 1 T12N
The enrichment of the first is higher: -2.06 log2 (difference from the parental peptide) for the first, -3.22 log2 (difference from the parental peptide) for the second.

Going from chain 1 T12K to chain 1 T12M, the enrichment rises from -2.78 log2 (difference from the parental peptide) to 1.75 log2 (difference from the parental peptide).

Compared with chain 1 T12C, chain 1 T12G is lower in enrichment: -3.34 log2 (difference from the parental peptide) for the first, -10.4 log2 (difference from the parental peptide) for the second.

Compared with chain 1 T12S, chain 1 T12P is lower in enrichment: -3.76 log2 (difference from the parental peptide) for the first, -4.02 log2 (difference from the parental peptide) for the second.

First: chain 1 T16R
Second: chain 1 T16V
The enrichment of the first is lower: -1.43 log2 (difference from the parental peptide) for the first, -0.108 log2 (difference from the parental peptide) for the second.

Going from chain 1 T16E to chain 1 T16P, the enrichment rises from 1.12 log2 (difference from the parental peptide) to 1.33 log2 (difference from the parental peptide).

Compared with chain 1 T16S, chain 1 T16C is lower in enrichment: 0.663 log2 (difference from the parental peptide) for the first, -5.46 log2 (difference from the parental peptide) for the second.

Compared with chain 1 T16Q, chain 1 T16A is lower in enrichment: 1.17 log2 (difference from the parental peptide) for the first, 1.13 log2 (difference from the parental peptide) for the second.

Going from chain 1 T16I to chain 1 T16G, the enrichment rises from -0.321 log2 (difference from the parental peptide) to 0.943 log2 (difference from the parental peptide).

Going from chain 1 T16N to chain 1 T16Y, the enrichment falls from 0.157 log2 (difference from the parental peptide) to -0.84 log2 (difference from the parental peptide).

First: chain 1 T16M
Second: chain 1 T16W
The enrichment of the first is higher: 0.118 log2 (difference from the parental peptide) for the first, -1.23 log2 (difference from the parental peptide) for the second.

First: chain 1 D3H
Second: chain 1 D3L
The enrichment of the first is higher: -2.9 log2 (difference from the parental peptide) for the first, -4.35 log2 (difference from the parental peptide) for the second.

Compared with chain 1 D3Q, chain 1 D3T is lower in enrichment: -1.63 log2 (difference from the parental peptide) for the first, -2.29 log2 (difference from the parental peptide) for the second.

Compared with chain 1 D3E, chain 1 D3Y is lower in enrichment: 0.618 log2 (difference from the parental peptide) for the first, -3.2 log2 (difference from the parental peptide) for the second.

Compared with chain 1 D3F, chain 1 D3S is higher in enrichment: -5.06 log2 (difference from the parental peptide) for the first, -2.79 log2 (difference from the parental peptide) for the second.

Going from chain 1 D3A to chain 1 D3M, the enrichment falls from -2.38 log2 (difference from the parental peptide) to -4.48 log2 (difference from the parental peptide).

Compared with chain 1 D4W, chain 1 D4R is higher in enrichment: -7.69 log2 (difference from the parental peptide) for the first, -4.61 log2 (difference from the parental peptide) for the second.

Going from chain 1 D4E to chain 1 D4K, the enrichment falls from -0.373 log2 (difference from the parental peptide) to -4.98 log2 (difference from the parental peptide).

Going from chain 1 D4S to chain 1 D4Q, the enrichment rises from -4.05 log2 (difference from the parental peptide) to -3.42 log2 (difference from the parental peptide).

First: chain 1 D4P
Second: chain 1 D4Y
The enrichment of the first is higher: -2.13 log2 (difference from the parental peptide) for the first, -5.69 log2 (difference from the parental peptide) for the second.

Compared with chain 1 D4V, chain 1 D4I is higher in enrichment: -7.15 log2 (difference from the parental peptide) for the first, -4.19 log2 (difference from the parental peptide) for the second.

Going from chain 1 D4F to chain 1 D4N, the enrichment rises from -6.96 log2 (difference from the parental peptide) to -3.02 log2 (difference from the parental peptide).

First: chain 1 D4M
Second: chain 1 L11W
The enrichment of the first is lower: -3.6 log2 (difference from the parental peptide) for the first, -0.813 log2 (difference from the parental peptide) for the second.

Compared with chain 1 L11H, chain 1 L11S is lower in enrichment: 2.36 log2 (difference from the parental peptide) for the first, -0.205 log2 (difference from the parental peptide) for the second.

Compared with chain 1 L11D, chain 1 L11A is higher in enrichment: -9.19 log2 (difference from the parental peptide) for the first, -1.12 log2 (difference from the parental peptide) for the second.

First: chain 1 L11E
Second: chain 1 L11K
The enrichment of the first is lower: -4.46 log2 (difference from the parental peptide) for the first, 2.96 log2 (difference from the parental peptide) for the second.

Going from chain 1 L11N to chain 1 L11R, the enrichment rises from -6.23 log2 (difference from the parental peptide) to 3.2 log2 (difference from the parental peptide).

First: chain 1 Y8F
Second: chain 1 Y8W
The enrichment of the first is higher: 0.399 log2 (difference from the parental peptide) for the first, -3.5 log2 (difference from the parental peptide) for the second.

Going from chain 1 Y8C to chain 1 Y8H, the enrichment rises from -9.78 log2 (difference from the parental peptide) to -5.35 log2 (difference from the parental peptide).

First: chain 1 Y8S
Second: chain 1 Y8V
The enrichment of the first is higher: -8.85 log2 (difference from the parental peptide) for the first, -8.87 log2 (difference from the parental peptide) for the second.

Compared with chain 1 Y8L, chain 1 P10L is lower in enrichment: -8.14 log2 (difference from the parental peptide) for the first, -8.28 log2 (difference from the parental peptide) for the second.

Going from chain 1 P10E to chain 1 P10G, the enrichment falls from -6.42 log2 (difference from the parental peptide) to -9.32 log2 (difference from the parental peptide).

Going from chain 1 P10Q to chain 1 P10T, the enrichment falls from -4.91 log2 (difference from the parental peptide) to -7.97 log2 (difference from the parental peptide).

Compared with chain 1 P10D, chain 1 P10W is higher in enrichment: -8.51 log2 (difference from the parental peptide) for the first, -5.95 log2 (difference from the parental peptide) for the second.

Going from chain 1 P10A to chain 1 F15H, the enrichment rises from -8.82 log2 (difference from the parental peptide) to 0.105 log2 (difference from the parental peptide).

Compared with chain 1 F15A, chain 1 F15Q is lower in enrichment: 0.597 log2 (difference from the parental peptide) for the first, -0.329 log2 (difference from the parental peptide) for the second.

First: chain 1 F15V
Second: chain 1 F15M
The enrichment of the first is higher: 1.08 log2 (difference from the parental peptide) for the first, 0.0931 log2 (difference from the parental peptide) for the second.

Going from chain 1 F15K to chain 1 F15T, the enrichment falls from 0.71 log2 (difference from the parental peptide) to 0.347 log2 (difference from the parental peptide).

Compared with chain 1 F15Y, chain 1 F15L is lower in enrichment: 2.54 log2 (difference from the parental peptide) for the first, 0.236 log2 (difference from the parental peptide) for the second.

Compared with chain 1 F15G, chain 1 F15N is higher in enrichment: -3.49 log2 (difference from the parental peptide) for the first, -1.55 log2 (difference from the parental peptide) for the second.

Compared with chain 1 F15P, chain 1 A9E is lower in enrichment: 1.23 log2 (difference from the parental peptide) for the first, -1.38 log2 (difference from the parental peptide) for the second.

Compared with chain 1 A9G, chain 1 A9V is lower in enrichment: -7.21 log2 (difference from the parental peptide) for the first, -9.17 log2 (difference from the parental peptide) for the second.

Compared with chain 1 A9Y, chain 1 A9N is higher in enrichment: -8.18 log2 (difference from the parental peptide) for the first, -4.52 log2 (difference from the parental peptide) for the second.

Compared with chain 1 A9W, chain 1 A9Q is higher in enrichment: -4.5 log2 (difference from the parental peptide) for the first, -1.77 log2 (difference from the parental peptide) for the second.

First: chain 1 C13T
Second: chain 1 C13V
The enrichment of the first is lower: -5.42 log2 (difference from the parental peptide) for the first, -2.69 log2 (difference from the parental peptide) for the second.

First: chain 1 C13F
Second: chain 1 C13Q
The enrichment of the first is higher: -5.92 log2 (difference from the parental peptide) for the first, -6.89 log2 (difference from the parental peptide) for the second.

First: chain 1 C13N
Second: chain 1 C13M
The enrichment of the first is lower: -8.31 log2 (difference from the parental peptide) for the first, -2.5 log2 (difference from the parental peptide) for the second.

First: chain 1 C13S
Second: chain 1 Y14T
The enrichment of the first is lower: -8.83 log2 (difference from the parental peptide) for the first, -3.79 log2 (difference from the parental peptide) for the second.

First: chain 1 Y14C
Second: chain 1 Y14L
The enrichment of the first is lower: -7.42 log2 (difference from the parental peptide) for the first, -4.61 log2 (difference from the parental peptide) for the second.
